Experimental data from the domain aggregation screens of Martell et al. (2025).

Assay: soluble fraction after stress (log2 fold change); higher = more stays soluble; pooled small domains, quantitative proteomics
Details: stress: 75 degC
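Note: 20 min heating vs room temperature control held 20 min.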

| Sequence | soluble fraction (log2) |
| --- | --- |
| HMGDITIPDLQGMSFDQAREKLKALGLSIGKISYTSDTSKDDGVVISQGLQAGGKASKGATVDITINET | 0.332 |
| HMTVNLPPKQKAAILLMSLPPEVSAQLFKELGPDEVHAITLEISKLPPISPDVRAQVIDEFLHSS | -0.641 |
| HMARRKRDIDSDINVKVFEHWLDNLDSASRESFSAFAEETFSPIQVYLYAKFLGYESSIIAVDHWVAVAYP | 0.135 |
| HMKLSKLTKPELDEIFRNANFTEEEEKVFWLLARGKSLEQISAKTFLPIATVNRRVKSIKDKIG | -0.436 |
| HMEHETTQLELNAPGQRLDAALALALPDTSRAQIQQWIKQGLVTDQAGTALLQASLKLKSPLNVVLQRPI | -0.215 |
| HMDFTISDADFHRLVQFIQQNYGVALSKKRQLISSRLSHSLRELGYKDFRTFLEHLFSTRDPADLELVLNK | -1.59 |
| HMETWDQAYETIKQNILNLTYPPGMPLTEAKLAEELGMSRSPVRTALRMLQTDGLIVTDYYKSMTVKEI | -1.95 |
| HMKILKQLEAIIEKEGLNESAKQFYLREISELDKEKQQEIINLVDKMEQAGFKNNLASAFSEVTEDIPQF | -0.138 |
| HMNRQTGTVKWFNDAKGFGFITPESGPDLFVHFRSIQGAGFKSLQEGQRVTFVAVQGQKGMQADQVQA | -0.681 |
| HMVSKQVTVNGIQYYQYTVQKSEGFYAISTKFGVTQDDIILANPSTKEGLRVGQEILIPIKT | -2.62 |
| HMTTIKLTQEDVEKIKSLPKRTFLIGNLQQTGLYDEKTRRFYYLDANGEWNGRLAIINTPPPPPPPP | 0.0273 |
| HMNRGITVIVNNEEIKMKEKAQYVVVDIFDYIDFDLTVPKGSINITLNGENTPYTASIKDGDVIEVFW | -1.09 |
| HMIVVMQPGATKEQVQAVIDRVAEFGFQTKLAPGAERMVIGVVGSPLPDTLKEALERLPGVEEVIRVSKR | -0.379 |
| HMSFVAYEEEKAIGMVRLIGDGGMSFYIKDFAVLPGHQGKGVGQMLLMELQQYLLEHKPADWAVSLE | -0.359 |
| HMDLEMLEVEDTIKDLLSQHQKINAIKYYRNYMSEQLNVDMGLRQAKDTIDAIGRGATVDLSVGY | -0.0747 |
| HMDEVVVVERGGVQITMSEIDAKIMELPVDVRPSYLDSPERLQNFVSNLLLEKQAAQLKSQY | -0.142 |
| HMLNLNILTDKEKFIAKLISRGLSDSLIAKELYISISTVRSHVNSIYGKTNIKNRSHLASSFLYFELGNLL | -0.204 |
| HMGPTPTSAQLTEAKRLRTKLDDLNPELAERLWSEHREPYTETQYQTLIEKLAAEVQSAEGEIGR | 0.222 |
| HMGGEPVSARVPDTLHGARLDATAAALFPDFSRSRLAEWIKAGRLRRNDQPAKPRDKVAVDDHLLLIPEY | 0.0937 |
| HMTPKVAVPSFVGWKFEDVERQLGTMGLIRGKVDNHPSEEYSEGRVIWQSVLGEVEKGKVIDFWVSTGPE | 0.0612 |
| HMSGTYIVTVQANTLDIYKSMTSNDTIGKANKGDVFQILEDMGGGYAKVSYNDVEGYISIKDGDTSIDEM | -0.389 |
| HMGSLAVVPSLTGKTLQEAQSKAADYGLALEIEGYVASTAVDYGRIVSQSPDAGFSVKSGSSVKVSVSAG | -0.0619 |
| HMFTKYSPDFKLSVILDMRKNNLGYGEVVRKYWNLDSYKESDRHRSQVRLWERIFLEEGVEGFM | -4.63 |
| HMGETISVPAVRSLAYDRAVDMLTAEGLKGIVADSVYDNRTQPGTVIEQNPKAGTIVKEGREVYLTINA | 0.275 |
| HMVSDSAELSAFVADVIKENAQAVADYKGGKTNVFGWLMGQIIKKSGGKATPAAAAALLKAELEK | -0.0308 |
| HMLMLTPGQIAQTLDVSTATVRRWSARYARHLSPNTPGKKRSYTVDDLAVLTRVRDLSATGTPLAQIDQAL | -2.11 |

| Sequence | soluble fraction (log2) |
| --- | --- |
| HMGFYDLFINLADKVGSLADVTQILAEARINLVNVHILEIREEIDGIAQLTFSSEKDRQKALELLKTKYK | -1.87 |
| HMVPEEEATKISVQNVGASDYNFTVKGVQANDPTLTLVRGKTYEFDVTSLGHPFWIKTQKVTGSSSQY | 0.354 |
| HMDVMNEIQQKAFDIYIQSASLKNDFTPISERALAKKLHDMGLKSSMSAIGRWKKKFGWVQSLQNKVTLA | -0.173 |
| HMFHDPTMEETLINLKGITNEVLSLLSSSKIKKLEDLAEMSVPELRDIVENISDEEASALIMEARKPWF | -0.22 |
| HMESPELIHILKEAEWQIWQQIQGLPEKQRIAMTLFAMDDLSYQEIADVMKVSVSAIESLLFRARTQLKKY | -0.546 |
| HMGKNIQAIRYKNNMTQDQVVAKLNLMGISITKSTYAKLETNRMNIKASELVALAKLFHTDINAFFSG | -3.12 |
| HMAQVSDDAELEKWADTAIDEHPKPVEEYRAGNAASINFLMGQVMKMSRGKANPGAVMQILKQKLD | 0.0191 |
| HMKFDVNAAIRAVLNVTVDKGATLERIMKETNLTSDQLVLPIALLMKTERLHFKRSGTHEVYVSVGKAPDK | -3.79 |
| HMEPEDVIAMERYLASGAIKGIGVTLAGRIIKKFQKETFHIIEEEPERLSEVKGISEKLAREIYQQFTQK | -1.11 |
| HMFMNFAEHLMALRKQRGWSQEELGSQIGVTRQTVSKWEMGQSTPELEKLVELSRLFGMSIDQLVGL | -0.118 |
| HMSKRDDLLDQASEWLAKLDRDLTVVEERELKAWLGESAAHRETFIQMAKLWDKMESLSRLTDL | -0.898 |
| HMDRRSTTLQDIYTRIDAEEISEALELIPKLGEIEFEQNRAEIAEAAGVRPAVLDKLRKQAAKQENNKK | -0.00584 |
| HMISAADLQTYLKGMDYPAGREDLVAHAQRNNAPESVITILQGFSDRTYRSAAEVSEEFGRE | 0.495 |
| HMGSGVNVTVNGKRMNLPLKDDHIIFVDIFNYIDFDLSKPKGSIVLKLNGRDAGYTDPIKDGDVIDIYWQ | -0.301 |
| HMFHGEGVQANNIQAYIVLKMAAVNGAEDALDTADEVSEKMSREDLETATQVLGQIFRKYLMELQSA | -1.22 |
| HMAAINTYQVRKIYAIAGALGMKSRDGDDALHDLVFGMTGKQHISGLTSAEAYDVIAELEKKQ | -1.6 |
| HMKGMIKVASMSLGADLGLYSRHLKYLGIVHRVVEESGGQSVYIQKLNDLHTAKESLELYLKNELKI | -2.56 |
| HMSTASPEELRQTPERRRLIEYLREHGGHGRTSEIAAALGIDDSTASRLLRRLADNGLIVRTQYGEYTLLQ | -0.184 |
| HMIFDPTTLPEKQLLVYGIISSHPGLNAKQISEMLTLKKSSIETAIKGLRKKEIIEYEGTTRNGG | -0.267 |
| HMRMETRILTADESGIRLDAFLASRLAVSRSLAASLIDDGNVTLNGTVPKKKTAVNVGDILEVAMP | -0.987 |
| HMPTLNIVDGHIAASDGVRILSIHNVTGRRYATSSKLPAGIYIVVLMPAKAETPLTVKVIVEA | -1.42 |
| HMDNPLSQQEKRILQLISLGKTNQEIADILYLSNGTVRNYISSILNKLSANNRVEAARIAEEHGW | -0.755 |
| HMITMWYYKKDGNIIGPASARKIASMRELGIITDSTPVSRKRNAKNWETFGGLSEKINLESSQWD | -1.98 |
| HMAEKEYYYATDALNLRQGPGMEHTVKGEVVLGERVALLGLEGKWAKIQNAQGTTGYVFSAYLAPS | -0.196 |
| HMIALKNLREEKRMTQAELSKDLEISPSAIGMYEQGRRVPDVSTLKKISAYFNVSIDYLLGNSTSKDI | -0.626 |
| HMTFAPTAIPSLTRPMEELMSWSFTPNEAFILSRINGLWDVRSIAKISPFPEGEVLRVFEKLHDGGLIRW | -3.6 |

| Sequence | soluble fraction (log2) |
| --- | --- |
| HMKDLQHLVGEKGTTVTPLRPSGIALIKGSRYDVVSEGSFIQQGVAVEVIKVEGRRVVVSPLQED | -0.722 |
| HMNFRESVLAVFENSKQKYLDFDEIAKRLGLTRGFDRQALASMLNELTRNDEIVFTKRNKYTLPEN | -0.524 |
| HMEPLVSKVFQVSYQKTADLVALIKSEDSKLLSARGTLISDERTSQIFVQDTPTRLERISMIVNGL | -0.889 |
| HMNQASLTYSEFIANVESKAITRVTISGDTISGILADGKPFQTIYPMADLELLPILRRSGVDINVKEVQ | -1.51 |
| HMSKSVEQRRQQIVAWVKEHGQSQVEDLAVRFATSEVTIRKDLAALSQQGLLIRQFGGAVPVPA | -0.982 |
| HMKLNKRQYAYQVIRSRILDGTYVPGQRIIIDQIAKEVNSSHIPVREAIHQLESEQLIDYEPNIGAIVKG | -0.242 |
| HMTPTVEAAKEEVLRVLASAAPRGLTRTELEAEVSFRRTKLRDTLVELERIGRIDSVGRRGNATTYRLIG | -1.44 |
| HMDYEVPEELEEKFSENPQFKEAFDNLTPGRQHQYIYHISQAKRSQTRINRIEKYYEHILNGKGMQD | 0.111 |
| HMDYTGIPQSLLDLMKKDNIMPMQIQRAVAERNYYPVDTPISNYDPMFIEAKLVGAWDQVLNVISHLDLP | -1.25 |
| HMNRIKIYPTPGSKVLSIENINFSLIHDFKILDIFGREVKNFTVSSEKNTKMLVDTSKLSDGLYFIFFNTF | -1.11 |
| HMSRGAIVTGTVIEKNQSGIYVDLGYKSDGIVPIEEFDGEESKYNVGDQIRVYVKKVDDGHGQLML | 0.142 |
| HMALMLGGLIVYLNTTAPRDDIDLIELSKDTKAMAAFGNKLASPDYNGKQFALDWHELSRDEIMSKYFS | -2.03 |
| HMESPLEQLTNRELQTLQMLGKGLSTKQIAAQLNLSVKTVETYRENLKRKLNLDSGSELIRYAIHRSNE | 0.532 |
| HMEDSHIYPVSFNGKMRFKLELPVSMNKKEIEEVVLQHEDAQKWLNGQNPKKVIVVPKRIINIV | 0.0193 |
| HMKDYKSALQELIQSGDKRVISYHTLKETGPSHNREFEAAVKLDGNIILGVGKGKTKKEAEQNAAHEALKK | -0.0221 |
| HMDAGIVVPDTYNKPLAEAVASLEGEGFRTEKKEGYSDTVAKGNVMSQNPEAGTNAERGSTVTIVISQGPQ | 0.455 |
| HMNSPSKVIDISQLRKGMFVQLDLGWMSHPFAVGSFKVSTDEQIQTLRGLGLSEVRYIPEKSDPA | -1.2 |
| HMRPTYRTRLEVLINNPAISGRDLDFAQSLLSYYERKGRLSAGRVKWVTTLEERYSPENLAASAAK | -0.856 |
| HMDFITPYEIEQGQYEGAELYEDGKFEEAFSLSSIAAQRGMKTAQYLLGIMFLKGEYVDQSLAIGMAW | -0.52 |
| HMTVDTSELEEMIDDLIKEHPNEWERYSSGEKKVQGFFVGQVMKATSGQADGKAINQILSKRVKS | 0.803 |
| HMLSKGDRVSWDTPQGRTQGEVVEKKTKDFEHDGQKFTASDDDPAFIVKSEKSGAEAAHKGSALNK | -0.000228 |
| HMEIALNDKQILLFSNKLVHEPSFASKYSKVGESYDDFAIRISENLTIPDKVQEYLPYLEKVGFNI | -0.622 |
| HMSKFSDTLVYLRKRAGFSQQELADKMEVSRSLVGMYESGQRMPSYEMLEALADIFNVNIDFLTGH | -1.28 |
| HMPAVVEFDVKPRGEVLVDGIWYGRIPELREVELRPGRHHLRVQNAGHPSLDLVVTLEPGERMTVTHTFA | -0.529 |
